Measured values taken from patent publication US20230114801A1 (SYSTIMMUNE, published 2023).

Columns and labels:
Assay in all cases: BLI (Octet), binder on AHC sensor, 100 nM human antigen, 1:1 fit
human CD3 = target: T1, human CD3 (human, UniProt P07766 23-126; P04234 22-105)
T1 construct: also called His-tagged human CD3; human CD3 (Acro CDD-H52W1)

human PD-L1 = target: T2, human PD-L1 (human, UniProt Q9NZQ7 19-238)
T2 construct: Soluble antigen in Octet; bought; also called human PD-L1 (Acro PD1-H5229)

human EGFR = target: T3, human EGFR (human, UniProt P00533 25-645, limits assumed)
T3 construct: Soluble antigen in Octet; construct not described

human HER3 = target: T4, human HER3 (human, UniProt P21860 20-643)
T4 construct: Soluble antigen in Octet; bought; also called human HER3 (Acro ER3-H5223)

human 4-1BB = target: T5, human 4-1BB (human, UniProt Q07011 24-186, limits assumed)
T5 construct: Soluble antigen in Octet; construct not described

B1: SI-75E2 (other)
chain 1: EIVLTQSPSTLSVSPGERATFSCRASQSIGTNIHWYQQKPGKPPRLLIKYASESISGIPDRFSGSGSGTEFTLTISSVQSEDFAVYYCQQNNNWPTTFGPGTKLTVLGGGGSGGGGSGGGGSGGGGSQVQLQQSGPGLVKPSETLSITCTVSGFSLTNYGVHWIRQAPGKGLEWLGVIWSGGNTDYNTPFTSRFTITKDNSKNQVYFKLRSVRADDTAIYYCARALTYYDYEFAYWGQGTLVTVSSGGGGSGGGGSEVQLVESGGGLVQPGGSLRLSCAASGFTISTNAMSWVRQAPGKGLEWIGVITGRDITYYASWAKGRFTISRDNSKNTLYLQMNSLRAEDTAVYYCARDGGSSAITSNNIWGQGTLVTVSSASTKGPSVFPLAPSSKSTSGGTAALGCLVKDYFPEPVTVSWNSGALTSGVHTFPAVLQSSGLYSLSSVVTVPSSSLGTQTYICNVNHKPSNTKVDKRVEPKSCDKTHTCPPCPAPEAAGGPSVFLFPPKPKDTLMISRTPEVTCVVVDVSHEDPEVKFNWYVDGVEVHNAKTKPREEQYNSTYRVVSVLTVLHQDWLNGKEYKCAVSNKALPAPIEKTISKAKGQPREPQVYTLPPSRDELTKNQVSLSCAVKGFYPSDIAVEWESNGQPENNYKTTPPVLDSDGSFFLVSKLTVDKSRWQQGNVFSCSVMHEALHNHYTQKSLSLSPG
chain 2: QSALTQPASVSGSPGQSITISCTGTSSDVGGYNFVSWYQQHPGKAPKLMIYDVSDRPSGVSDRFSGSKSGNTASLIISGLQADDEADYYCSSYGSSSTHVIFGGGTKVTVLGGGGSGGGGSGGGGSGGGGSQVQLQESGGGLVKPGGSLSLSCAASGFTFSSYWMSWVRQAPGKGLEWVANINRDGSASYYVDSVKGRFTISRDDAKNSLYLQMNSLRAEDTAVYYCARDRGVGYFDLWGRGTLVTVSSGGGGSGGGGSDVVMTQSPSTLSASVGDRVTINCQASESISSWLAWYQQKPGKAPKLLIYEASKLASGVPSRFSGSGSGTEFTLTISSLQPDDFATYYCQGYFYFISRTYVNSFGGGTKVEIKRTVAAPSVFIFPPSDEQLKSGTASVVCLLNNFYPREAKVQWKVDNALQSGNSQESVTEQDSKDSTYSLSSTLTLSKADYEKHKVYACEVTHQGLSSPVTKSFNRGECGGDKTHTCPPCPAPEAAGGPSVFLFPPKPKDTLMISRTPEVTCVVVDVSHEDPEVKFNWYVDGVEVHNAKTKPREEQYNSTYRVVSVLTVLHQDWLNGKEYKCAVSNKALPAPIEKTISKAKGQPREPQVYTLPPSRDELTKNQVSLWCLVKGFYPSDIAVEWESNGQPENNYKTTPPVLDSDGSFFLYSKLTVDKSRWQQGNVFSCSVMHEALHNRFTQKSLSLSPGGGGGSGGGGSDIQMTQSPSTLSASVGDRVTITCQASQSISSHLNWYQQKPGKAPKLLIYKASTLASGVPSRFSGSGSGTEFTLTISSLQPDDFATYYCQQGYSWGNVDNVFGGGTKVTVLGGGGSGGGGSGGGGSGGGGSEVQLLESGGGLVQPGGSLSLSCAASGFSFSSGYDMCWVRQAPGKGLEWIACIAAGSAGITYDANWAKGRFTISRDNSKNTLYLQMNSLRAEDTAVYYCARSAFSFDYAMDLWGQGTLVTVSS
notes: tetra-miniGNC; D1 αEGFR, D2 αHER3, D3 αCD3 (Fab), D5 αPD-L1; also called tetra-miniGNC (SI-75E2)
Kd (human CD3): 22.1 nM | Kd (human PD-L1): 1.36 nM | Kd (human EGFR): 8.24 nM | Kd (human HER3): 114 nM

B2: SI-75P6 (other)
chain 1: DVVMTQSPSTLSASVGDRVTINCQASESISSWLAWYQQKPGKAPKLLIYEASKLASGVPSRFSGSGSGTEFTLTISSLQPDDFATYYCQGYFYFISRTYVNSFGGGTKVEIKGGGGSGGGGSGGGGSGGGGSEVQLVESGGGLVQPGGSLRLSCAASGFTISTNAMSWVRQAPGKGLEWIGVITGRDITYYASWAKGRFTISRDNSKNTLYLQMNSLRAEDTAVYYCARDGGSSAITSNNIWGQGTLVTVSSGGGGSGGGGSQVQLQQSGPGLVKPSETLSITCTVSGFSLTNYGVHWIRQAPGKGLEWLGVIWSGGNTDYNTPFTSRFTITKDNSKNQVYFKLRSVRADDTAIYYCARALTYYDYEFAYWGQGTLVTVSSASTKGPSVFPLAPSSKSTSGGTAALGCLVKDYFPEPVTVSWNSGALTSGVHTFPAVLQSSGLYSLSSVVTVPSSSLGTQTYICNVNHKPSNTKVDKRVEPKSCDKTHTCPPCPAPEAAGGPSVFLFPPKPKDTLMISRTPEVTCVVVDVSHEDPEVKFNWYVDGVEVHNAKTKPREEQYNSTYRVVSVLTVLHQDWLNGKEYKCAVSNKALPAPIEKTISKAKGQPREPQVYTLPPSRDELTKNQVSLSCAVKGFYPSDIAVEWESNGQPENNYKTTPPVLDSDGSFFLVSKLTVDKSRWQQGNVFSCSVMHEALHNHYTQKSLSLSPGGGGGSGGGGSDVVMTQSPSSVSASVGDRVTITCQASQNIRTYLSWYQQKPGKAPKLLIYAAANLASGVPSRFSGSGSGTDFTLTISDLEPGDAATYYCQSTYLGTDYVGGAFGGGTKLTVLGGGGSGGGGSGGGGSGGGGSEVQLVESGGGLVQPGGSLRLSCTASGFTISSYHMQWVRQAPGKGLEYIGTISSGGNVYYASSARGRFTISRPSSKNTVDLQMNSLRAEDTAVYYCARDSGYSDPMWGQGTLVTVSS
chain 2: QSALTQPASVSGSPGQSITISCTGTSSDVGGYNFVSWYQQHPGKAPKLMIYDVSDRPSGVSDRFSGSKSGNTASLIISGLQADDEADYYCSSYGSSSTHVIFGGGTKVTVLGGGGSGGGGSGGGGSGGGGSQVQLQESGGGLVKPGGSLSLSCAASGFTFSSYWMSWVRQAPGKGLEWVANINRDGSASYYVDSVKGRFTISRDDAKNSLYLQMNSLRAEDTAVYYCARDRGVGYFDLWGRGTLVTVSSGGGGSGGGGSEIVLTQSPSTLSVSPGERATFSCRASQSIGTNIHWYQQKPGKPPRLLIKYASESISGIPDRFSGSGSGTEFTLTISSVQSEDFAVYYCQQNNNWPTTFGPGTKLTVLRTVAAPSVFIFPPSDEQLKSGTASVVCLLNNFYPREAKVQWKVDNALQSGNSQESVTEQDSKDSTYSLSSTLTLSKADYEKHKVYACEVTHQGLSSPVTKSFNRGECGGDKTHTCPPCPAPEAAGGPSVFLFPPKPKDTLMISRTPEVTCVVVDVSHEDPEVKFNWYVDGVEVHNAKTKPREEQYNSTYRVVSVLTVLHQDWLNGKEYKCAVSNKALPAPIEKTISKAKGQPREPQVYTLPPSRDELTKNQVSLWCLVKGFYPSDIAVEWESNGQPENNYKTTPPVLDSDGSFFLYSKLTVDKSRWQQGNVFSCSVMHEALHNRFTQKSLSLSPGGGGGSGGGGSDIQMTQSPSTLSASVGDRVTITCQASQSISSHLNWYQQKPGKAPKLLIYKASTLASGVPSRFSGSGSGTEFTLTISSLQPDDFATYYCQQGYSWGNVDNVFGGGTKVTVLGGGGSGGGGSGGGGSGGGGSEVQLLESGGGLVQPGGSLSLSCAASGFSFSSGYDMCWVRQAPGKGLEWIACIAAGSAGITYDANWAKGRFTISRDNSKNTLYLQMNSLRAEDTAVYYCARSAFSFDYAMDLWGQGTLVTVSS
notes: penta-miniGNC, IgG1 knobs-into-holes heterodimer; D1 αCD3, D2 αHER3, D3 αEGFR (Fab), D4 α4-1BB, D5 αPD-L1; also called penta-miniGNC (SI-75P6)
Kd (human CD3): 36.2 nM | Kd (human PD-L1): 1.45 nM | Kd (human EGFR): 5.56 nM | Kd (human 4-1BB): 37.3 nM

B3: SI-75E1 (other)
chain 1: EIVLTQSPSTLSVSPGERATFSCRASQSIGTNIHWYQQKPGKPPRLLIKYASESISGIPDRFSGSGSGTEFTLTISSVQSEDFAVYYCQQNNNWPTTFGPGTKLTVLGGGGSGGGGSGGGGSGGGGSQVQLQQSGPGLVKPSETLSITCTVSGFSLTNYGVHWIRQAPGKGLEWLGVIWSGGNTDYNTPFTSRFTITKDNSKNQVYFKLRSVRADDTAIYYCARALTYYDYEFAYWGQGTLVTVSSGGGGSGGGGSEVQLVESGGGLVQPGGSLRLSCAASGFTISTNAMSWVRQAPGKGLEWIGVITGRDITYYASWAKGRFTISRDNSKNTLYLQMNSLRAEDTAVYYCARDGGSSAITSNNIWGQGTLVTVSSASTKGPSVFPLAPSSKSTSGGTAALGCLVKDYFPEPVTVSWNSGALTSGVHTFPAVLQSSGLYSLSSVVTVPSSSLGTQTYICNVNHKPSNTKVDKRVEPKSCDKTHTCPPCPAPEAAGGPSVFLFPPKPKDTLMISRTPEVTCVVVDVSHEDPEVKFNWYVDGVEVHNAKTKPREEQYNSTYRVVSVLTVLHQDWLNGKEYKCAVSNKALPAPIEKTISKAKGQPREPQVYTLPPSRDELTKNQVSLSCAVKGFYPSDIAVEWESNGQPENNYKTTPPVLDSDGSFFLVSKLTVDKSRWQQGNVFSCSVMHEALHNHYTQKSLSLSPGGGGGSGGGGSDVVMTQSPSSVSASVGDRVTITCQASQNIRTYLSWYQQKPGKAPKLLIYAAANLASGVPSRFSGSGSGTDFTLTISDLEPGDAATYYCQSTYLGTDYVGGAFGGGTKLTVLGGGGSGGGGSGGGGSGGGGSEVQLVESGGGLVQPGGSLRLSCTASGFTISSYHMQWVRQAPGKGLEYIGTISSGGNVYYASSARGRFTISRPSSKNTVDLQMNSLRAEDTAVYYCARDSGYSDPMWGQGTLVTVSS
chain 2: QSALTQPASVSGSPGQSITISCTGTSSDVGGYNFVSWYQQHPGKAPKLMIYDVSDRPSGVSDRFSGSKSGNTASLIISGLQADDEADYYCSSYGSSSTHVIFGGGTKVTVLGGGGSGGGGSGGGGSGGGGSQVQLQESGGGLVKPGGSLSLSCAASGFTFSSYWMSWVRQAPGKGLEWVANINRDGSASYYVDSVKGRFTISRDDAKNSLYLQMNSLRAEDTAVYYCARDRGVGYFDLWGRGTLVTVSSGGGGSGGGGSDVVMTQSPSTLSASVGDRVTINCQASESISSWLAWYQQKPGKAPKLLIYEASKLASGVPSRFSGSGSGTEFTLTISSLQPDDFATYYCQGYFYFISRTYVNSFGGGTKVEIKRTVAAPSVFIFPPSDEQLKSGTASVVCLLNNFYPREAKVQWKVDNALQSGNSQESVTEQDSKDSTYSLSSTLTLSKADYEKHKVYACEVTHQGLSSPVTKSFNRGECGGDKTHTCPPCPAPEAAGGPSVFLFPPKPKDTLMISRTPEVTCVVVDVSHEDPEVKFNWYVDGVEVHNAKTKPREEQYNSTYRVVSVLTVLHQDWLNGKEYKCAVSNKALPAPIEKTISKAKGQPREPQVYTLPPSRDELTKNQVSLWCLVKGFYPSDIAVEWESNGQPENNYKTTPPVLDSDGSFFLYSKLTVDKSRWQQGNVFSCSVMHEALHNRFTQKSLSLSPG
notes: tetra-miniGNC; D1 αEGFR, D2 αHER3, D3 αCD3 (Fab), D4 α4-1BB
Kd (human CD3): 20.3 nM | Kd (human EGFR): 8.9 nM | Kd (human HER3): 185 nM | Kd (human 4-1BB): 17.8 nM
